Reference: patent US20230129812A1, “COMPOSITIONS AND METHODS FOR TREATING PULMONARY HYPERTENSION” (Acceleron Pharma Inc., priority 2020, published 2023)
Numbering of substitutions follows the chain as printed. Names may count otherwise. Blank lines part the entries; values can stand above or below the molecule they belong to.

How the values were obtained:
GDF8 [1] = target: T1, GDF8 (Homo sapiens, UniProt O14793); test: Biacore assay, ActRIIB-Fc captured with anti-hFc antibody, ligand injected (Example 8); type: binding; conditions: for Koff: GDF8, Table 10; for myostatin (GDF8) binding: cell-free Biacore assay, Example 8
T1 sequence (O14793 267-375): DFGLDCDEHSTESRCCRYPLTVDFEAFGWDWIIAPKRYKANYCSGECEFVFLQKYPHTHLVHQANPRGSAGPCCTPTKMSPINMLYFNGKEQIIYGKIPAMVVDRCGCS
Experimental: (§1) Binding of certain ActRIIB-Fc proteins and ActRIIB variant Fc fusion polypeptides to ligands was tested in a Biacore™ assay.
(§2) The ActRIIB-Fc variants or wild-type protein were captured onto the system using an anti-hFc antibody. Ligands were injected and flowed over the captured receptor proteins.

GDF11 [2] = target: T2, GDF11 (Homo sapiens, UniProt O95390); test: as above; type: binding; conditions: for Koff: GDF11, Table 10; for GDF11 binding: cell-free Biacore assay, Example 8
T2 sequence (O95390 299-407): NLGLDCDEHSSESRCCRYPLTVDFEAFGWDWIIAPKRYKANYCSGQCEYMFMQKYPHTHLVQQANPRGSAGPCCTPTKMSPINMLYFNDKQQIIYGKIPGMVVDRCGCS
Experimental: as §1, §2

activin A [3] = target: T3, activin A (Homo sapiens, UniProt P08476); test: as above; type: binding; conditions: for Koff / KD (M): Activin A, Table 10; for activin A binding: cell-free Biacore assay, Example 8
T3 sequence (P08476 311-426): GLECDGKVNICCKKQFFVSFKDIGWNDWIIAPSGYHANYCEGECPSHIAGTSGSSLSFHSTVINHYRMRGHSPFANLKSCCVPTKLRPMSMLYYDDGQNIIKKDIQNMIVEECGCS
Experimental: as §1, §2

activin A [4] = target: T3, activin A; test: A-204 reporter gene assay, pGL3(CAGA)12 luciferase; type: cell-based; conditions: for inhibition of activin A signaling: A-204 reporter gene assay; for Activin Inhibition Activity: Table 9, cell-based A-204 assay
Text: (§3) An A-204 reporter gene assay was used to evaluate the effects of ActRIIB-Fc proteins and ActRIIB variant Fc fusion polypeptides on signaling by GDF-11 and activin A. Cell line: human rhabdomyosarcoma (derived from muscle). Reporter vector: pGL3(CAGA)12 (described in Dennler et al, 1998, EMBO 17: 3091-3100). The CAGA12 motif is present in TGF-beta responsive genes (e.g., PAI-1 gene), so this vector is of general use for factors signaling through SMADs.
(§4) Day 1: Split A-204 cells into 48-well plate.
(§5) Day 2: A-204 cells transfected with 10 ug pGL3(CAGA)12 or pGL3(CAGA)12(10 ug)+pRLCMV (1 pg) and Fugene.
(§6) Day 3: Add factors (diluted into medium+0.1% BSA). Inhibitors need to be preincubated with factors for 1 hr before adding to cells. Six hrs later, cells were rinsed with PBS and lysed.
(§7) This is followed by a luciferase assay.
(§8) Activity of ActRIIB-Fc proteins and ActRIIB variant Fc fusion polypeptides was tested in a cell-based assay as described above. Some variants were tested in different C-terminal truncation constructs. As discussed above, truncations of five or fifteen amino acids caused reduction in activity. […]

GDF11 [5] = target: T2, GDF11; test: A-204 reporter gene assay, pGL3(CAGA)12 luciferase; type: cell-based; conditions: for inhibition of GDF11 signaling: A-204 reporter gene assay; for GDF11 Inhibition Activity: Table 9, cell-based A-204 assay
Text: as §3, §4, §5, §6, §7, §8

GDF11 [6] = target: T2, GDF11; test: Biacore ligand affinity of ActRIIB-hFc forms, steady-state affinity fit; type: binding; conditions: Table 12; Kd by steady-state affinity fit; read-out: GDF11 (Kd e−11)
Experimental: (§9) Affinities of several ligands for ActRIIB(25-131)-hFc and its full-length counterpart ActRIIB(20-134)-hFc were evaluated in vitro with a Biacore™ instrument, and the results are summarized in Table 8 below. Kd values were obtained by steady-state affinity fit due to very rapid association and dissociation of the complex, which prevented accurate determination of kon and koff. ActRIIB(25-131)-hFc bound, for example, activin A, activin B, and GDF11 with high affinity.
(§10) The affinity of ActRIIB variants and other ActRIIB-hFc proteins for several ligands was evaluated in vitro with a Biacore™ instrument. Kd values were obtained by steady-state affinity fit due to the very rapid association and dissociation of the complex, which prevented accurate determination of kon and koff.

activin B = target: T4, activin B (Homo sapiens, UniProt P09529); test: as above; type: binding; conditions: Table 12; Kd by steady-state affinity fit; read-out: Activin B (Kd e−11)
T4 sequence (P09529 293-407): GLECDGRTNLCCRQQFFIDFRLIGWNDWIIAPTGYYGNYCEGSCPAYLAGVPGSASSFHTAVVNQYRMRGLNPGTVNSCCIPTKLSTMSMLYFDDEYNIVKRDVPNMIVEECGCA
Experimental: as §9, §10

activin A [7] = target: T3, activin A; test: as above; type: binding; conditions: Table 12; Kd by steady-state affinity fit; read-out: Activin A (Kd e−11)
Experimental: as §9, §10

GDF8 [8] = target: T1, GDF8; test: A-204 reporter gene assay, pGL3(CAGA)12 luciferase; type: cell-based
Text: as §3, §4, §5, §6, §7
As described below, ActRIIB variants were also tested in this assay.
In addition, an A-204 Reporter Gene Assay was used to evaluate the effects of ALK4-Fc:ActRIIB-Fc heterodimer and ActRIIB-Fc:ActRIIB-Fc homodimer on signaling by activin A, activin B, GDF11, GDF8, BMP10, and BMP9. Cell line: Human Rhabdomyosarcoma (derived from muscle). Reporter vector: pGL3(CAGA)12 (as described in Dennler et al, 1998, EMBO 17: 3091-3100). The CAGA12 motif is present in TGFβ responsive genes (PAI-1 gene), so this vector is of general use for factors signaling through Smads. An exemplary A-204 Reporter Gene Assay is outlined below. • Day 1: Split A-204 cells into 48-well plate. • Day 2: A-204 cells transfected with 10 ug pGL3(CAGA)12 or pGL3(CAGA)12(10 ug)+pRLCMV (1 ug) and Fugene. • Day 3: Add factors (diluted into medium+0.1% BSA). Inhibitors need to be pre-incubated with Factors for about one hr before adding to cells. About six hrs later, cells are rinsed with PBS and then lysed.
Following the above steps, a Luciferase assay was performed.

Koff (GDF8 [1]): 3.45e-05 s⁻¹ | Koff (GDF11 [2]): 0.000113 s⁻¹ | Koff (activin A [3]): 0.000159 s⁻¹ | inhibition of activin A signaling (activin A [4]): potent inhibitor | inhibition of GDF11 signaling (GDF11 [5]): potent inhibitor | Kd (GDF11 [6]): 0.036 nM | Kd (activin B): 0.012 nM | Kd (activin A [7]): 0.016 nM | inhibition of GDF8 signaling (GDF8 [8]): potent inhibitor
B1: ActRIIB(20-134)-hFc: extracellular domain of human ActRIIB (residues 20-134, R64) fused to a human Fc domain with a minimal linker (protein)
chain: GRGEAETRECIYYNANWELERTNQSGLERCEGEQDKRLHCYASWRNSSGTIELVKKGCWLDDFNCYDRQECVATEENPQVYFCCCEGNFCNERFTHLPEAGGPEVTYEPPPTAPTGGGTHTCPPCPAPELLGGPSVFLFPPKPKDTLMISRTPEVTCVVVDVSHEDPEVKFNWYVDGVEVHNAKTKPREEQYNSTYRVVSVLTVLHQDWLNGKEYKCKVSNKALPVPIEKTISKAKGQPREPQVYTLPPSREEMTKNQVSLTCLVKGFYPSDIAVEWESNGQPENNYKTTPPVLDSDGSFFLYSKLTVDKSRWQQGNVFSCSVMHEALHNHYTQKSLSLSPGK
Activin Inhibition Activity (activin A [4]): +++ (Good (wild-type) activity (roughly 1 × 10^−8 KI)) | GDF11 Inhibition Activity (GDF11 [5]): +++ (Good (wild-type) activity (roughly 1 × 10^−8 KI))

Koff (GDF8 [1]): 0.00083 s⁻¹ | myostatin (GDF8) binding (GDF8 [1]): retains myostatin and GDF11 binding | Koff (GDF11 [2]): 0.000439 s⁻¹ | GDF11 binding (GDF11 [2]): retains myostatin and GDF11 binding | KD (M) (activin A [3]): Low binding | inhibition of activin A signaling (activin A [4]): substantial loss of activin A inhibition | Activin Inhibition Activity (activin A [4]): + (Poor activity (roughly 1 × 10^−6 KI)) | inhibition of GDF11 signaling (GDF11 [5]): almost wild-type inhibition of GDF11 | Kd (GDF11 [6]): 0.123 nM | Kd (activin B): 0.788 nM | Kd (activin A [7]): 13.5 nM
B2: ActRIIB(L79D 20-134)-hFc: ActRIIB amino acids 20-134 with an L79D substitution fused to a human Fc domain (protein)
chain: B1 chain with L60D
activin A binding (activin A [3]): markedly decreased (non-quantifiable) binding to activin A | GDF11 Inhibition Activity (GDF11 [5]): +++ (Good (wild-type) activity (roughly 1 × 10^−8 KI))

Koff (GDF8 [1]): 0.0009 s⁻¹ | myostatin (GDF8) binding (GDF8 [1]): retains myostatin and GDF11 binding | Koff (GDF11 [2]): 0.000274 s⁻¹ | GDF11 binding (GDF11 [2]): retains myostatin and GDF11 binding | KD (M) (activin A [3]): Low binding | inhibition of activin A signaling (activin A [4]): substantial loss of activin A inhibition | Activin Inhibition Activity (activin A [4]): + (Poor activity (roughly 1 × 10^−6 KI)) | inhibition of GDF11 signaling (GDF11 [5]): almost wild-type inhibition of GDF11
B3: ActRIIB(L79E 20-134)-hFc: alternative form with a glutamate rather than an aspartate at position 79 (protein)
chain: B1 chain with L60E
activin A binding (activin A [3]): markedly decreased (non-quantifiable) binding to activin A | GDF11 Inhibition Activity (GDF11 [5]): +++ (Good (wild-type) activity (roughly 1 × 10^−8 KI))

Koff (GDF11 [2]): 6.35e-05 s⁻¹ | Koff (activin A [3]): 0.000346 s⁻¹ | inhibition of activin A signaling (activin A [4]): equivalent to the wild-type molecule | inhibition of GDF11 signaling (GDF11 [5]): equivalent to the wild-type molecule
B4: ActRIIB(A24N 20-134)-hFc: ActRIIB-Fc variant with A24N substitution, residues 20-134 (protein)
chain: B1 chain with A5N
GDF11 binding (GDF11 [2]): retains ligand-binding activity that is similar to that of the ActRIIB(20-134)-hFc molecule | activin A binding (activin A [3]): retains ligand-binding activity that is similar to that of the ActRIIB(20-134)-hFc molecule | Activin Inhibition Activity (activin A [4]): +++ (Good (wild-type) activity (roughly 1 × 10^−8 KI)) | GDF11 Inhibition Activity (GDF11 [5]): +++ (Good (wild-type) activity (roughly 1 × 10^−8 KI))

Koff (GDF8 [1]): 4.71e-05 s⁻¹ | Koff (GDF11 [2]): 2.41e-05 s⁻¹ | Koff (activin A [3]): 0.000325 s⁻¹
B5: ActRIIB(R64K 20-134)-hFc: ActRIIB-Fc variant with R64K substitution, residues 20-134 (protein)
chain: B1 chain with R45K
Activin Inhibition Activity (activin A [4]): +++ (Good (wild-type) activity (roughly 1 × 10^−8 KI)) | GDF11 Inhibition Activity (GDF11 [5]): +++ (Good (wild-type) activity (roughly 1 × 10^−8 KI))
